To fix the notation:
B1: Compound 21 (peptide)
peptide: HXEGTFSSELATILDXQAARDFIAWLIAHKITD
HELM: PEPTIDE1{H.[Aib].E.G.T.F.S.S.E.L.A.T.I.L.D.K.Q.A.A.R.D.F.I.A.W.L.I.A.H.K.I.T.D}|PEPTIDE2{[O=C(O)CCCCCCCCCCCCCCCCC(=O)[*:2]].[gGlu]}$PEPTIDE1,PEPTIDE2,16:R3-2:R2$$$V2.0
SMILES: CC[C@H](C)[C@H](NC(=O)[C@H](CC(C)C)NC(=O)[C@H](Cc1c[nH]c2ccccc12)NC(=O)[C@H](C)NC(=O)[C@@H](NC(=O)[C@H](Cc1ccccc1)NC(=O)[C@H](CC(=O)O)NC(=O)[C@H](CCCNC(=N)N)NC(=O)[C@H](C)NC(=O)[C@H](C)NC(=O)[C@H](CCC(N)=O)NC(=O)[C@H](CCCCNC(=O)CC[C@H](NC(=O)CCCCCCCCCCCCCCCCC(=O)O)C(=O)O)NC(=O)[C@H](CC(=O)O)NC(=O)[C@H](CC(C)C)NC(=O)[C@@H](NC(=O)[C@@H](NC(=O)[C@H](C)NC(=O)[C@H](CC(C)C)NC(=O)[C@H](CCC(=O)O)NC(=O)[C@H](CO)NC(=O)[C@H](CO)NC(=O)[C@H](Cc1ccccc1)NC(=O)[C@@H](NC(=O)CNC(=O)[C@H](CCC(=O)O)NC(=O)C(C)(C)NC(=O)[C@@H](N)Cc1c[nH]cn1)[C@@H](C)O)[C@@H](C)O)[C@@H](C)CC)[C@@H](C)CC)C(=O)N[C@@H](C)C(=O)N[C@@H](Cc1c[nH]cn1)C(=O)N[C@@H](CCCCN)C(=O)N[C@H](C(=O)N[C@H](C(=O)N[C@@H](CC(=O)O)C(=O)O)[C@@H](C)O)[C@@H](C)CC
B2: reference compound A (peptide)
peptide: B1 peptide with E3D, T5S, A28Q
HELM: PEPTIDE1{H.[Aib].D.G.S.F.S.S.E.L.A.T.I.L.D.K.Q.A.A.R.D.F.I.A.W.L.I.Q.H.K.I.T.D}|PEPTIDE2{[O=C(O)CCCCCCCCCCCCCCCCC(=O)[*:2]].[gGlu]}$PEPTIDE1,PEPTIDE2,16:R3-2:R2$$$V2.0
SMILES: CC[C@H](C)[C@H](NC(=O)[C@H](Cc1ccccc1)NC(=O)[C@H](CC(=O)O)NC(=O)[C@H](CCCNC(=N)N)NC(=O)[C@H](C)NC(=O)[C@H](C)NC(=O)[C@H](CCC(N)=O)NC(=O)[C@H](CCCCNC(=O)CC[C@H](NC(=O)CCCCCCCCCCCCCCCCC(=O)O)C(=O)O)NC(=O)[C@H](CC(=O)O)NC(=O)[C@H](CC(C)C)NC(=O)[C@@H](NC(=O)[C@@H](NC(=O)[C@H](C)NC(=O)[C@H](CC(C)C)NC(=O)[C@H](CCC(=O)O)NC(=O)[C@H](CO)NC(=O)[C@H](CO)NC(=O)[C@H](Cc1ccccc1)NC(=O)[C@H](CO)NC(=O)CNC(=O)[C@H](CC(=O)O)NC(=O)C(C)(C)NC(=O)[C@@H](N)Cc1c[nH]cn1)[C@@H](C)O)[C@@H](C)CC)C(=O)N[C@@H](C)C(=O)N[C@@H](Cc1c[nH]c2ccccc12)C(=O)N[C@@H](CC(C)C)C(=O)N[C@H](C(=O)N[C@@H](CCC(N)=O)C(=O)N[C@@H](Cc1c[nH]cn1)C(=O)N[C@@H](CCCCN)C(=O)N[C@H](C(=O)N[C@H](C(=O)N[C@@H](CC(=O)O)C(=O)O)[C@@H](C)O)[C@@H](C)CC)[C@@H](C)CC
B3: Compound 23 (peptide)
peptide: B1 peptide with S7T
HELM: PEPTIDE1{H.[Aib].E.G.T.F.T.S.E.L.A.T.I.L.D.K.Q.A.A.R.D.F.I.A.W.L.I.A.H.K.I.T.D}|PEPTIDE2{[O=C(O)CCCCCCCCCCCCCCCCC(=O)[*:2]].[gGlu]}$PEPTIDE1,PEPTIDE2,16:R3-2:R2$$$V2.0
SMILES: CC[C@H](C)[C@H](NC(=O)[C@H](CC(C)C)NC(=O)[C@H](Cc1c[nH]c2ccccc12)NC(=O)[C@H](C)NC(=O)[C@@H](NC(=O)[C@H](Cc1ccccc1)NC(=O)[C@H](CC(=O)O)NC(=O)[C@H](CCCNC(=N)N)NC(=O)[C@H](C)NC(=O)[C@H](C)NC(=O)[C@H](CCC(N)=O)NC(=O)[C@H](CCCCNC(=O)CC[C@H](NC(=O)CCCCCCCCCCCCCCCCC(=O)O)C(=O)O)NC(=O)[C@H](CC(=O)O)NC(=O)[C@H](CC(C)C)NC(=O)[C@@H](NC(=O)[C@@H](NC(=O)[C@H](C)NC(=O)[C@H](CC(C)C)NC(=O)[C@H](CCC(=O)O)NC(=O)[C@H](CO)NC(=O)[C@@H](NC(=O)[C@H](Cc1ccccc1)NC(=O)[C@@H](NC(=O)CNC(=O)[C@H](CCC(=O)O)NC(=O)C(C)(C)NC(=O)[C@@H](N)Cc1c[nH]cn1)[C@@H](C)O)[C@@H](C)O)[C@@H](C)O)[C@@H](C)CC)[C@@H](C)CC)C(=O)N[C@@H](C)C(=O)N[C@@H](Cc1c[nH]cn1)C(=O)N[C@@H](CCCCN)C(=O)N[C@H](C(=O)N[C@H](C(=O)N[C@@H](CC(=O)O)C(=O)O)[C@@H](C)O)[C@@H](C)CC
B4: Compound 22 (peptide)
peptide: B1 peptide with T5S, S7T
HELM: PEPTIDE1{H.[Aib].E.G.S.F.T.S.E.L.A.T.I.L.D.K.Q.A.A.R.D.F.I.A.W.L.I.A.H.K.I.T.D}|PEPTIDE2{[O=C(O)CCCCCCCCCCCCCCCCC(=O)[*:2]].[gGlu]}$PEPTIDE1,PEPTIDE2,16:R3-2:R2$$$V2.0
SMILES: CC[C@H](C)[C@H](NC(=O)[C@H](CC(C)C)NC(=O)[C@H](Cc1c[nH]c2ccccc12)NC(=O)[C@H](C)NC(=O)[C@@H](NC(=O)[C@H](Cc1ccccc1)NC(=O)[C@H](CC(=O)O)NC(=O)[C@H](CCCNC(=N)N)NC(=O)[C@H](C)NC(=O)[C@H](C)NC(=O)[C@H](CCC(N)=O)NC(=O)[C@H](CCCCNC(=O)CC[C@H](NC(=O)CCCCCCCCCCCCCCCCC(=O)O)C(=O)O)NC(=O)[C@H](CC(=O)O)NC(=O)[C@H](CC(C)C)NC(=O)[C@@H](NC(=O)[C@@H](NC(=O)[C@H](C)NC(=O)[C@H](CC(C)C)NC(=O)[C@H](CCC(=O)O)NC(=O)[C@H](CO)NC(=O)[C@@H](NC(=O)[C@H](Cc1ccccc1)NC(=O)[C@H](CO)NC(=O)CNC(=O)[C@H](CCC(=O)O)NC(=O)C(C)(C)NC(=O)[C@@H](N)Cc1c[nH]cn1)[C@@H](C)O)[C@@H](C)O)[C@@H](C)CC)[C@@H](C)CC)C(=O)N[C@@H](C)C(=O)N[C@@H](Cc1c[nH]cn1)C(=O)N[C@@H](CCCCN)C(=O)N[C@H](C(=O)N[C@H](C(=O)N[C@@H](CC(=O)O)C(=O)O)[C@@H](C)O)[C@@H](C)CC

Positions count from the first letter of the chain named.

The first experiment addresses T1, human GLP-2 receptor (hGLP2-R) (human, UniProt O95838 1-553).
T1 sequence (looked up): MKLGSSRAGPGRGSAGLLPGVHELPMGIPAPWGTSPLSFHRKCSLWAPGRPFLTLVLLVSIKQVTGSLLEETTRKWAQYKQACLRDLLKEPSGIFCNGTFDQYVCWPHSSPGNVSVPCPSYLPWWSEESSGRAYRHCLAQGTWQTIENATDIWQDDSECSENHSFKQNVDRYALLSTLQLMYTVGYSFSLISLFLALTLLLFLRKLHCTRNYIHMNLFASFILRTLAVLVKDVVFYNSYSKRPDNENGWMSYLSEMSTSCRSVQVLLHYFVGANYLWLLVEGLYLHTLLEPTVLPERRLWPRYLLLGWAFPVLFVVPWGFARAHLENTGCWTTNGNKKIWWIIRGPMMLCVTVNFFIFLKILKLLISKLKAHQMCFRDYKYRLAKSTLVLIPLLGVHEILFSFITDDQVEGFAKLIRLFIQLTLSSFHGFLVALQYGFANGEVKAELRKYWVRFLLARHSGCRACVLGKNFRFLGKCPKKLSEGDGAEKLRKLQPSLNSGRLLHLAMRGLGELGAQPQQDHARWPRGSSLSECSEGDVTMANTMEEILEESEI
The experiment is described as follows: cell-based or functional assay.
On to B1, for which the “EC50 GLP-2 (nM); cAMP response” value is 0.27 nM.
On the same count and under the same terms, under B2 stands 0.083 nM; under B3, 0.24 nM; under B4, 0.2 nM.

The target of the next experiment is human glucagon-like peptide 1 receptor (GLP-1 R) (human, UniProt P43220 24-463). The experiment is described as follows: cell-based or functional assay.
As to B1, the “EC50 GLP-1 (nM); cAMP response” value turned out to be 1.8 nM.
On the same count and under the same terms, the value for B2 was 0.49 nM; that for B3 was 0.13 nM.
The same measure, in the same setting: the value for B4 was 0.23 nM.
